Two proteins from doi:10.1101/676627 (bioRxiv, 2019) can be followed below.

Data set [1] concerns the molecule itself. The data set is described as follows: crystal structure.
Data set [2] concerns the molecule itself. The data set is described as follows: SEC-MALS. A general note: Size exclusion chromatography separates by hydrodynamic size, large species first.

B1: ROCext surface engineered mutant (KA), K1460A and K1463A (domain or fragment, human, UniProt Q5S007 1329-1520, looked up)
chain: AVPYNRMKLMIVGNTGSGKTTLLQQLMKTKKSDLGMQSATVGIDVKDWPIQIRDKRKRDLVLNVWDFAGREEFYSTHPHFMTQRALYLAVYDLSKGQAEVDAMKPWLFNIKARASSSPVILVGTHLDVSDEAQRAACMSKITKELLNKRGFPAIRDYHFVNATEESDALAKLRKTIINESLNFKIRDQLVVG
As for B1, the “stoichiometry N” value in data set [1] came out at 2.

B2: ROCext, wild-type GTPase (ROC) domain of human LRRK2, residues 1329-1520 (domain or fragment, UniProt Q5S007 1329-1520, looked up)
chain: AVPYNRMKLMIVGNTGSGKTTLLQQLMKTKKSDLGMQSATVGIDVKDWPIQIRDKRKRDLVLNVWDFAGREEFYSTHPHFMTQRALYLAVYDLSKGQAEVDAMKPWLFNIKARASSSPVILVGTHLDVSDEKQRKACMSKITKELLNKRGFPAIRDYHFVNATEESDALAKLRKTIINESLNFKIRDQLVVG
B2: in data set [2], the “stoichiometry N” value stood at 2.

As usually defined, the stoichiometry N is a count of units in the complex or per binding partner.
